Data published in patent US20190211098A1 (Genentech, published 2019).
Where a chain is given by its changes, count along the chain named. Numbers in names are those of the source.

T1: Full length myc-DDK tagged PIANP, expressed on transfected 293T cells (human, UniProt Q8IYJ0 32-282)
T1 construct: Bought construct (Origene Cat. No. RC207868); also called myc-PIANP; C12orf53 (human); not shown: myc-DDK tag of the Origene construct RC207868
T1 sequence: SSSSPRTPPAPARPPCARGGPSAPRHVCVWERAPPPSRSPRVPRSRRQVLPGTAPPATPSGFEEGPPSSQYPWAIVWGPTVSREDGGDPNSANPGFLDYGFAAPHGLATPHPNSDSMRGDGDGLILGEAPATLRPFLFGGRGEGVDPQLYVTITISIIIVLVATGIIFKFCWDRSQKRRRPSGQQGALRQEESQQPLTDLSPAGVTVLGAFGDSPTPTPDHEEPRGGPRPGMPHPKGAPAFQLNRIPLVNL

B1: Mouse PILRA ligand C12orf53 fused to human IgG1 Fc (Fc fusion)
chain: SSHRSPPAPARPPCVRGGPSAPRHVCVWERAPPPSRSPRVPRSRRQVVPGTAPPATPSGFEEGPPSSQYPWAIVWGPTVSREDGGDPNSVNPGFLPLDYGFAAPHGLATPHPNSDSMRDDGDGLILGETPATLRPFLFGGRGEGVDP
notes: also called C12orf53-Fc; mouse C12orf53-Fc; not shown: human IgG1 Fc
B2: Anti-mouse PILRA antibody 12C6.9 (antibody, mouse IgG2a, kappa, V domains shown)
VH: QIQLVQSGPELKKPGETVKISCKASGYTFTTYGMSWMKQAPGKGLKWMGWINTYSGVPTYADDFKGRFAFSLETSASTAYLQISNLKDEDTARYFCARRDYGSSQWYFDVWSTGTTVTVSS
VL: DIVMTQSPKFMSISVGDRVSVTCKASQNVGTKVAWYQQKPGQSPKELIYSASYRFSGVPDRFTGSGSGTDFTLTISSVQSEDLAEYFCQQYNTYPLTFGAGTKLEIKR
B3: NPDC1 extracellular domain (1-190 aa) fused to murine IgG2a Fc (Fc fusion)
chain: GHPDVAACPGSLDCALKRRARCPPGAHACGPCLQPFQEDQQGLCVPRMRRPPGGGRPQPRLEDEIDFLAQELARKESGHSTPPLPKDRQRLPEPATLGFSARGQGLELGLPSTPGTPTPTPHTSLGSPVSSDPVHMSPLEPRGGQGDGLALVLILA
notes: also called NPDC1-mFc; NPDC1-mFC; not shown: Fc region of murine IgG2a, C-terminal tag
B4: NPDC1-His (ligand)
chain: GHPDVAACPGSLDCALKRRARCPPGAHACGPCLQPFQEDQQGLCVPRMRRPPGGGRPQPRLEDEIDFLAQELARKESGHSTPPLPKDRQRLPEPATLGFSARGQGLELGLPSTPGTPTPTPHTSLGSPVSSDPVHMSPLEPRGGQGD
notes: not shown: His tag
B5: PILRA G80 variant extracellular domain fused to murine IgG2a Fc (Fc fusion)
chain: QPSGSTGSGPSYLYGVTQPKHLSASMGGSVEIPFSFYYPWELATAPDVRISWRRGHFHGQGFYSTRPPSIHKDYVNRLFLNWTEGQKSGFLRISNLQKQDQSVYFCRVELDTRSSGRQQWQSIEGTKLSITQAVTTTTQRPSSMTTTWRLSSTTTTTGLRVTQGKRRSDSWHISLET
notes: also called PILRA-mFc G80; not shown: Fc region of murine IgG2a, C-terminal tag
B6: PILRA R78 variant extracellular domain fused to murine IgG2a Fc (Fc fusion)
chain: B5 chain with G59R, G61S
notes: also called PILRA-mFc R78; PILRA-Fc R78; not shown: Fc region of murine IgG2a, C-terminal tag
B7: Anti-mouse PILRA antibody 12H1.8 (antibody, mouse IgG2a, kappa, V domains shown)
VH: QVQLQQSGAELVGPGTSVKISCQASGYTFTNYWIGWAKQRPGHGLEWIGDIYPGGGYTNYNKKFKGKATLTADKSSSTAYMQFSSLTSEDSAIYYCSRSRGHGSNFYWYFDVWGTGTTVTVSS
VL: DIVMTQSPKFMSTSVGDRVNITCRASQDVNTAVAWFQQKPGRSPKLLIYSASYRYTGPDHFTGSGSGTDFTFTISSVQAEDLAVYYCQQHYTTPLTFGAGTKLEIKR
B8: Isotype control antibody 12D4 (antibody, mouse IgG2a, kappa, V domains shown)
VH: QVQLQQSGAELVTPGASVKLSCKTSGHTFTSYWMNWVNQKPGQGLEWIGWIYGGSGNTKYNQKFQGKATLTVDTSSSTAYMELRSLTSDDSAVYFCASGTNFFDYWGQGTMVTVSS
VL: DIVMTQSHKFMSTSVGDRVSITCKASQDVSTAVAWYQQKPGQSPKLLIYSASYRYTGVPDRFTGSGSGTDFTFTISSVQAEDLAVYYCQQHYSTPLTFGAGTKLELKR
B9: PILRA A140 variant (Q140A) extracellular domain fused to murine IgG2a Fc (Fc fusion)
chain: B5 chain with G61S, Q121A
notes: also called PILRA-mFc A140; PILRA-Fc A140; not shown: Fc region of murine IgG2a, C-terminal tag

What was measured:
Murine PILRA-His = biological target: T2, Murine PILRA-His (mouse, UniProt Q2YFS3 32-198); assay: array SPR imaging, sandwich format: mAb 2 on the chip, murine PILRA-His 100 nM, then Fc-tagged ligand at 10 ug/ml; response normalised to the PILRA level
T2 construct: not shown: His tag
T2 sequence (Q2YFS3 32-198 limits assumed): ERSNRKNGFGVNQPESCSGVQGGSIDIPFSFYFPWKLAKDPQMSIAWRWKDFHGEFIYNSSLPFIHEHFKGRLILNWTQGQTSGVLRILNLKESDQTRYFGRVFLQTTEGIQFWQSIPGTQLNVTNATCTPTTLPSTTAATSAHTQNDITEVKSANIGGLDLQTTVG

[1] = biological target: T3, Biotinylated mouse PILRA ECD (mouse, UniProt Q2YFS3 32-198, biotinylated (sites not given)); assay: competitive ELISA: biotinylated mouse PILRA ECD on Neutravidin plate, antibody titrated together with a fixed amount of mouse CD99-Fc, bound ligand-Fc detected with anti-human IgG-Fc-HRP
T3 construct: Captured on Neutravidin plates; also called mPILRA; recombinant PILRA ECD
T3 sequence (Q2YFS3 32-198 limits assumed): as above

[2] = biological target: T3, Biotinylated mouse PILRA ECD; assay: competitive ELISA: biotinylated mouse PILRA ECD on Neutravidin plate, antibody titrated together with a fixed amount of mouse C12orf53-Fc, bound ligand-Fc detected with anti-human IgG-Fc-HRP
Procedure: The PILRA ECD-based competitive ELISA was performed as follows. […] Plates were blocked with 0.5% bovine serum albumin, 15 ppm Proclin 300 (Supelco, Bellefonte, Pa.) in PBS (80 μl/well) at room temperature for 1 h and washed. Biotinylated mouse PILRA ECD at 0.25 μg/ml (Genentech, Inc.) in 0.5% bovine serum albumin, 0.05% polysorbate 20, 15 ppm Proclin 300 in PBS, pH 7.4 (assay buffer) was added to the plates. After 1.5 hrs incubation, plates were washed. […] The mixture of the serially diluted antibody and ligand-Fc was added to the plates at 25 μl/well. After a 2 hrs incubation, plates were washed. […] After a 1 hr incubation, plates were washed and the substrate 3,3′,5,5′-tetramethyl benzidine (Moss Inc., TMBE-1000) was added. The reaction was stopped by adding 1 M phosphoric acid. The absorbance was read at 450 nm using a microplate reader (Multiskan Ascent, Thermo Scientific, Waltham, Mass.). The titration curves were plotted using KaleidaGraph (Synerg Software, Reading, Pa.).

[3] = biological target: T4, A140 variant of PILRA (Q140A), full-length, expressed on transfected 293T cells (human, UniProt Q9UKJ1 20-303); assay: flow cytometry, soluble NPDC1-mIgG2a on PILRA-variant-transfected 293T cells
T4 construct: Point mutation put into the full-length G78 construct by site-directed mutagenesis
Procedure: (§1) Relative PILRA-ligand binding to PILRA variant transfected cells was performed as follows. […] Double positive cells were gated on the G78 sample and then the gates were overlaid on subsequent samples to maintain the same cell population throughout the experiment.

[4] = biological target: T5, R78 variant of PILRA (AD-protective), full-length, on cells (human, UniProt Q9UKJ1 20-303); assay: as above
T5 construct: also called PILRA R78; rs1859788 variant
Procedure: as §1

[5] = biological target: T6, A141 variant of PILRA (S141A), full-length, expressed on transfected 293T cells (human, UniProt Q9UKJ1 20-303); assay: as above
T6 construct: Point mutation put into the full-length G78 construct by site-directed mutagenesis
Procedure: as §1

[6] = biological target: T7, A76 variant of PILRA, full-length, expressed on transfected 293T cells (human, UniProt Q9UKJ1 20-303); assay: flow cytometry, soluble NPDC1-mFc 50 ug/ml on PILRA-variant-transfected 293T cells
T7 construct: Point mutation put into the full-length G78 construct by site-directed mutagenesis; also called F76 substituted to alanine
Procedure: as §1
(§2) Cells were washed and NPDC1 and PILRA cell surface staining was assessed by flow cytometry using anti-mIgG2a-FITC and anti-PILRA antibodies, respectively. […] Binding of the G78 variant of PILRA to NPDC1 was considered 100%.

[7] = biological target: T8, A72 variant of PILRA, full-length, expressed on transfected 293T cells (human, UniProt Q9UKJ1 20-303); assay: as above
T8 construct: Point mutation put into the full-length G78 construct by site-directed mutagenesis; also called R72 substituted to alanine
Procedure: as §1, §2

[8] = biological target: T5, R78 variant of PILRA (AD-protective), …; assay: as above
Procedure: as §1, §2

[9] = biological target: T9, G80 variant of PILRA, full-length, expressed on transfected 293T cells (human, UniProt Q9UKJ1 20-303); assay: as above
T9 construct: Point mutation put into the full-length G78 construct by site-directed mutagenesis; also called S80 substituted to glycine
Procedure: as §1, §2

[10] = biological target: B6; assay: SPR, NPDC1-His binding to PILRA variant
NPDC1-His [11] = biological target: B4; assay: SPR, NPDC1-His binding to PILRA variant
[12] = biological target: T10, HSV-1 glycoprotein B, full length, expressed on transfected 293T cells (human herpes simplex virus type-1, UniProt P06437 31-904); assay: flow cytometry: soluble PILRA-mFc variant (50 ug/ml) on HSV-1 gB-transfected 293T cells, FITC anti-mouse IgG2a; MFI as % of G78 (= 100 %)
T10 construct: Construct cloned from EF157316 (strain KOSc); also called HSV-1 gB; human herpesvirus 1 strain KOSc glycoprotein B (EF157316)

[13] = biological target: T1, Full length myc-DDK tagged PIANP, …; assay: flow cytometry: soluble PILRA-mFc variant (50 ug/ml) on myc-PIANP-transfected 293T cells, FITC anti-mouse IgG2a; MFI as % of G78 (= 100 %)
Procedure: The percentage of mean fluorescence intensity (MFI) of PILRA-mFC binding on ligand-transfected cells relative to the G78 variant of PILRA binding for each experiment was calculated.
as §2

NPDC1-His [14] = biological target: B4; assay: SPR, NPDC1-His binding to PILRA variant; remark: listed apart in the source
[15] = biological target: T11, Mouse PILRA extracellular domain fused to human CD3 zeta chain transmembrane and intracellular domains, on … (mouse; human); assay: cell-based competitive ELISA: 293-PILRA stable cells, antibody titrated together with a fixed amount of mouse CD99-Fc, bound ligand-Fc detected with anti-human IgG-Fc-HRP
T11 construct: domain: transmembrane and intracellular domains; also called cell surface PILRA
T11 sequence (P20963 other isoform, or with tags, fused parts or gaps limits assumed): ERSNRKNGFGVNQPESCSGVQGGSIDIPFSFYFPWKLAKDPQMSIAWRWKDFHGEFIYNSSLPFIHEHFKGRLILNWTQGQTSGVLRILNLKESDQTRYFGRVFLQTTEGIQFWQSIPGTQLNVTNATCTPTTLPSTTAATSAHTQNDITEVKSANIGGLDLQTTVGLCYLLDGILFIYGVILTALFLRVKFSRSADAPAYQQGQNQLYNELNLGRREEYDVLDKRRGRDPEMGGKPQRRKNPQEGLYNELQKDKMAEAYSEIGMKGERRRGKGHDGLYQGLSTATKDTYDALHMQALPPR
Procedure: After plates were centrifuged at 1200 rpm for 5 min at 4° C., the supernatant was decanted and the mixture of the serially diluted antibody and the ligand-Fc was added. Plates were incubated at 4° C. for 1 h with gentle shaking. Cells were washed with ice-cold 0.1% BSA in PBS, pH 7.4 (wash buffer) by centrifuging the plate at 1200 rpm for 5 min at 4° C. and the cells were resuspended in 200 μl wash buffer. […] Plates were incubated at 4° C. for 1 hr with gentle shaking. Cells were washed with ice-cold wash buffer 4 times. Cells were resuspended in 100 μl of the substrate 3,3′,5,5′-tetramethyl benzidine (Moss Inc., TMBE-1000) and plates were incubated at room temperature for approximately 20 min for color development. The reaction was stopped by adding 1 M phosphoric acid. The absorbance was read at 450 nm using a microplate reader (Multiskan Ascent, Thermo Scientific, Waltham, Mass.). The titration curves were plotted using KaleidaGraph (Synerg Software, Reading, Pa.).

[16] = biological target: T11, Mouse PILRA extracellular domain fused …; assay: cell-based competitive ELISA: 293-PILRA stable cells, antibody titrated together with a fixed amount of mouse CD99-Fc
[17] = biological target: T3, Biotinylated mouse PILRA ECD; assay: competitive ELISA: biotinylated mouse PILRA ECD on Neutravidin plate, antibody titrated together with a fixed amount of mouse CD99-Fc
[18] = biological target: B3; assay: SPR (ProteOn XPR36): PILRA-mFc A140 amine-coupled to a GLC chip, 100 nM NPDC1-mFc injected
Procedure: PILRA variant ligand binding Surface Plasmon Resonance (SPR) was performed as follows.
Next, the interaction of PILRA variants and ligands in vitro using surface plasmon resonance (SPR) was investigated.

B1
binding result (Murine PILRA-His): binds

B2
IC50 (read off the curve) [1]: ~4 nM
IC50 (read off the curve) [2]: ~3 nM

B3
% of G78 binding [3]: 22 % of G78
% of G78 binding [4]: 44 % of G78
% of G78 binding [5]: 117 % of G78
% of G78 variant binding [6]: ~20 % of G78 variant
% of G78 variant binding [7]: ~20 % of G78 variant
% of G78 variant binding [8]: ~35 % of G78 variant
% of G78 variant binding [9]: ~60 % of G78 variant
binding result (Murine PILRA-His): binds

B4
Kd [10]: 76.5 nM
kon [10]: 6800 M⁻¹ s⁻¹

B5
Kd (NPDC1-His [11]): 30 nM
kon (NPDC1-His [11]): 17000 M⁻¹ s⁻¹
binding result [12]: binds
binding result [13]: binds

B6
binding result [12]: binds
fold lower affinity than the G78 variant (NPDC1-His [14]): ~4.5 fold
fold lower kon than the G78 variant (NPDC1-His [14]): ~3 fold
binding result [13]: binds

B7
IC50 (read off the curve) [1]: ~4 nM
IC50 (read off the curve) [2]: ~4 nM
IC50 (read off the curve) [15]: ~8 nM

B8
binding result [16]: no binding (tested: 200 nM)
binding result [17]: no binding (tested: 200 nM)

B9
binding result [18]: binds
